In article PMC4574919, “Structural and Biochemical Analysis of a Single Amino-Acid Mutant of WzzBSF That Alters Lipopolysaccharide O-Antigen Chain Length in Shigella flexneri” (PLoS ONE, 2015):
Where a chain is given by its changes, count along the chain named. Numbers in names are those of the source.

B1: full-length WzzBSF (natural protein)
chain: MRVENNNVSGQNHDPEQIDLIDLLVQLWRGKMTIIISVIVAIALAIGYLAVAKEKWTSTAIITQPDVGQIAGYNNAMNVIYGQAAPKVSDLQETLIGRFSSAFSALAETLDNQEEPEKLTIEPSVKNQQLPLTVSYVGQTAEGAQMKLAQYIQQVDDKVNQELEKDLKDNIALGRKNLQDSLRTQEVVAQEQKDLRIRQIQEALQYANQAQVTKPQVQQTEDVTQDTLFLLGSEALESMIKHEATRPLVFSPNYYQTRQNLLDIEKLKFDDLDIHAYRYVMKPTLPIRRDSPKKAITLILAVLLGGMVGAGIVLGRNALRNYNAK
notes: WzzBSF of Shigella flexneri, wzzSF open reading frame in pRMCD30; ~36 kDa; also called wild-type WzzBSF; source: S. flexneri RMA4053 (wzz::kan), from plasmid pRMCD30 (pQE30-based), IPTG-induced, in whole cells
B2: periplasmic domain of WzzBSF (residues 54-295) (domain or fragment)
chain: EKWTSTAIITQPDVGQIAGYNNAMNVIYGQAAPKVSDLQETLIGRFSSAFSALAETLDNQEEPEKLTIEPSVKNQQLPLTVSYVGQTAEGAQMKLAQYIQQVDDKVNQELEKDLKDNIALGRKNLQDSLRTQEVVAQEQKDLRIRQIQEALQYANQAQVTKPQVQQTEDVTQDTLFLLGSEALESMIKHEATRPLVFSPNYYQTRQNLLDIEKLKFDDLDIHAYRYVMKPTLPIRRDSPKKA
notes: WzzBSF (polysaccharide co-polymerase, O-antigen chain length regulator) of Shigella flexneri, periplasmic domain, residues 54-295; Cloned in pMCSG7 by ligation-independent cloning; also called wild-type WzzBSF periplasmic domain; source: E. coli BL21(DE3), autoinduction, purified (HisTrap, TEV cleavage, reverse HisTrap, Superdex 200 SEC); not shown: His6, N-terminal, cleaved
B3: periplasmic domain of WzzBSF A107P (residues 54-295) (domain or fragment)
chain: B2 chain with A54P
notes: WzzBSF of Shigella flexneri, periplasmic domain, residues 54-295, with the mutation A107P found by random mutagenesis; Same construct limits as m1 ('the equivalent construct containing the A107P mutation'); also called A107P mutant; source: E. coli BL21(DE3), autoinduction, purified (HisTrap, TEV cleavage, reverse HisTrap, Superdex 200 SEC); not shown: His6, N-terminal, cleaved

How the values were obtained:
[1] = molecular target: the molecule itself; experiment: SDS-PAGE and immunoblot of non-cross-linked cells; whole S. flexneri cells incubated without formaldehyde (control), samples heated at 60°C for 5 min, 12% SDS-PAGE, immunoblot with anti-WzzBSF
[2] = molecular target: the molecule itself; experiment: crystal structure; hanging drop, 18°C, 0.1 M citric-acid/HEPES/CHES pH 7.3, 18% PEG 400, 18% PEG 8000, 0.1 M MgCl2; protein 12-13 mg/ml; open trimer in the crystal

Protein	stoichiometry N [1]	stoichiometry N [2]
B1	2	–
B2	–	3
B3	–	3
